Measured values reported in patent US20220323583A1, “Pharmaceutical Formulations of Bi-Specific Diabodies and Use of the Same” (MacroGenics, Inc., priority 2019, published 2022).

What was measured:
THP-1 = assay: Redirected killing of target cell line; type: cell-based
HT29 = assay: Redirected killing of target cell line; type: cell-based; settings: HT29 (CD123 negative)
[1] = target: T1, soluble recombinant human IL-3 receptor alpha (rhIL3Rα) (Homo sapiens, UniProt P26951); assay: ELISA (rhIL3Rα) DART-A quantitation assay (concentration, protein recovery); settings: for Actual Concentration: target 20 ng/mL
T1 construct: soluble recombinant human IL-3 receptor alpha (rhIL3Rα)
T1 sequence (P26951 19-305 limits assumed): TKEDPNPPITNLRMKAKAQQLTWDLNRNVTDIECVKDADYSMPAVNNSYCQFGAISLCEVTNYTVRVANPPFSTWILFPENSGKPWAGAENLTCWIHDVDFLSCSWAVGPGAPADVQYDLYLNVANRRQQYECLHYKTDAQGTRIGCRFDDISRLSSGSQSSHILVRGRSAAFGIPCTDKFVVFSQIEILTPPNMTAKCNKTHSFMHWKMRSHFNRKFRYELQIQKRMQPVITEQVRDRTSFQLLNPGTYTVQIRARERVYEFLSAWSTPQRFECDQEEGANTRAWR
Method: In brief, the assay plate was coated with soluble recombinant human IL-3 receptor alpha (rhIL3Rα) overnight. […] After addition of MSD Read Buffer, the plate was inserted into the Sector Imager 2400 Plate Reader. When a voltage was applied to the plate electrodes, the bound Sulfo-TAG label produces an ECL signal, which was captured by the plate reader. A quantitative measure of the ECL signal emitted by each well was recorded, and the ECL counts emitted by the standard calibrators were used to generate a standard curve using a 4-parameter logistic (4PL) fit.

[2] = tested on: soluble recombinant human CD3 (shCD3-Fos-Jun); assay: CD3 binding ELISA (relative potency); settings: Relative Potency vs DART-A reference standard, 1250 ng/mL dosing solution, Stabilizer 2
Excerpt: The two CD3 chains (delta and gamma) contain either the Fos protein or the Jun protein to enhance proper folding and functionality of the CD3 complex. […] The soluble CD3-Fos-Jun, was coated on the surface of an ELISA plate. […] Quantification of bound probe antibody was achieved by addition of a colorimetric AP substrate (AP-Yellow 1 Component Substrate). Oxidation of AP-Yellow by AP yields a colored product that can be read at 405±10 nm. The assay was quantified by the intensity of color, measured using a spectrophotometer set to an optimal wavelength of 405±10 nm. Data were fitted to a four-parameter model with the following variable constraints: the maximum, minimum and slope of each dose response curve is set to be shared between all dose response curves on the plate; the EC50 was determined independently for each curve.

[3] = FLR SE-HPLC protein recovery (monomer peak area); type: physicochemical
Method: Four levels of PS80 were tested during this study to evaluate the blocking activity of the surfactant. Briefly, test stabilizer solutions (10 mM sodium phosphate at pH 6.0, 150 mM sodium chloride, 1.6 mg/mL BA and 0, 0.05, 0.1, or 0.2 mg/mL PS80) were added to a normal saline containing IV bag. After thorough mixing, the DART-A DP formulation was added to the same IV bag. The bag containing the dosing solution was incubated at 25±2° C. and samples were collected at 0, 24 and 48 hours (the longest proposed administration time). Each sample was analyzed using FLR/SE-HPLC and verified using ELISA to quantify DART-A protein recovery.
For both low and high concentration infusions, samples were collected at 24, 48, and 72 hours from sampling point #5. […] The data was calculated against the expected TO sample to obtain the DART-A recovery. […] Similar to other binding ELISA assays, these ranges are within the typical variation of this type of bioassay (50%-150%).
FLR SE-HPLC analysis was performed to measure protein purity, monomer purity and protein stability. The FLR SE-HPLC configuration included a fluorescence (FLR) detector (λX=280 nm, λE=340 nm), a mobile phase composition of 350 mM Mobile Phase (175 mMNaH2PO4, 175 mMNa2SO, pH 6.3) and a TosoBio TSK G3000SWXL size exclusion column. Samples were diluted to 0.1 mg/mL and stored at 5±3° C. for 24 to 96 hours prior to analysis. Eight μg of protein (or 100 μL is sample concentration was below 0.1 mg/mL) was injected for each 30-minute run. HMW and LMW species and monomer peaks were monitored.

[4] = Study 1, Stabilizer 1, dual-pump infusion RT, High (5000 ng/mL), Expected or Control (T0)
[5] = Study 1, Stabilizer 1, dual-pump infusion RT, High (5000 ng/mL), T = 24 hours
[6] = Study 1, Stabilizer 1, dual-pump infusion RT, High (5000 ng/mL), T = 48 hours
[7] = Study 1, Stabilizer 1, dual-pump infusion RT, High (5000 ng/mL), T = 72 hours
[8] = Study 1, Stabilizer 1, dual-pump infusion RT, Low (100 ng/mL), Expected or Control (T0)
[9] = Study 1, Stabilizer 1, dual-pump infusion RT, Low (100 ng/mL), T = 24 hours
[10] = Study 1, Stabilizer 1, dual-pump infusion RT, Low (100 ng/mL), T = 48 hours
[11] = Study 1, Stabilizer 1, dual-pump infusion RT, Low (100 ng/mL), T = 72 hours
[12] = Study 2, Stabilizer 1, cassette 25° C., 100 rpm, High (5000 ng/mL), T = 0
[13] = Study 2, Stabilizer 1, cassette 25° C., 100 rpm, High (5000 ng/mL), T = 24 hours
[14] = Study 2, Stabilizer 1, cassette 25° C., 100 rpm, High (5000 ng/mL), T = 48 hours
[15] = Study 2, Stabilizer 1, cassette 25° C., 100 rpm, High (5000 ng/mL), T = 72 hours
[16] = Study 2, Stabilizer 1, cassette 25° C., 100 rpm, Low (100 ng/mL), T = 0
[17] = Study 2, Stabilizer 1, cassette 25° C., 100 rpm, Low (100 ng/mL), T = 24 hours
[18] = Study 2, Stabilizer 1, cassette 25° C., 100 rpm, Low (100 ng/mL), T = 48 hours
[19] = Study 2, Stabilizer 1, cassette 25° C., 100 rpm, Low (100 ng/mL), T = 72 hours
[20] = Study 3, Stabilizer 1, cassette 37° C., 100 rpm, Low (100 ng/mL), T = 0
[21] = Study 3, Stabilizer 1, cassette 37° C., 100 rpm, Low (100 ng/mL), T = 72 hours
[22] = Study 3, Stabilizer 1, cassette 37° C., 100 rpm, second group, target concentration not given, T = 0
[23] = Study 3, Stabilizer 1, cassette 37° C., 100 rpm, second group, target concentration not given, T = 72 hours

Chain of soluble recombinant human CD3 (shCD3-Fos-Jun) (P07766 23-126 limits assumed): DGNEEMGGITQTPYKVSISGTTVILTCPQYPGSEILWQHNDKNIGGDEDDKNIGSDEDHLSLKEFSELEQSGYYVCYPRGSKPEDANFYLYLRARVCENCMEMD

B1: DART-A: sequence-optimized CD123×CD3 bispecific diabody; chains SEQ ID NO:42 and SEQ ID NO:44 covalently bonded by a disulfide bond (protein)
chain 1: QAVVTQEPSLTVSPGGTVTLTCRSSTGAVTTSNYANWVQQKPGQAPRGLIGGTNKRAPWTPARFSGSLLGGKAALTITGAQAEDEADYYCALWYSNLWVFGGGTKLTVLGGGGSGGGGEVQLVQSGAELKKPGASVKVSCKASGYTFTDYYMKWVRQAPGQGLEWIGDIIPSNGATFYNQKFKGRVTITVDKSTSTAYMELSSLRSEDTAVYYCARSHLLRASWFAYWGQGTLVTVSSGGCGGGEVAALEKEVAALEKEVAALEKEVAALEK
chain 2: DFVMTQSPDSLAVSLGERVTMSCKSSQSLLNSGNQKNYLTWYQQKPGQPPKLLIYWASTRESGVPDRFSGSGSGTDFTLTISSLQAEDVAVYYCQNDYSYPYTFGQGTKLEIKGGGSGGGGEVQLVESGGGLVQPGGSLRLSCAASGFTFSTYAMNWVRQAPGKGLEWVGRIRSKYNNYATYYADSVKDRFTISRDDSKNSLYLQMNSLKTEDTAVYYCVRHGNFGNSYVSWFAYWGQGTLVTVSSGGCGGGKVAALKEKVAALKEKVAALKEKVAALKE
modifications: interchain disulfide bond; First Polypeptide Chain of DART-A; Second Polypeptide Chain of DART-A
With B1 the “Max % Killing” value (THP-1) was 40%, the “Max % Killing” value (HT29) was “No activity” and the “EC50, redirected killing” value (HT29; E:T = 10:1) was “No activity”. The “Actual Concentration” value ([1]; Final PS80 0.1 mg/mL, Post 24 Hr Storage and 96 Hr Admin) was 19.3 ng/mL, the “Actual Concentration” value ([1]; Final PS80 0.1 mg/mL, T0) was 19.9 ng/mL and the “Actual Concentration” value ([1]; Final PS80 0.12 mg/mL, Post 24 Hr Storage and 96 Hr Admin) was 20.6 ng/mL. The “Actual Concentration” value ([1]; Final PS80 0.12 mg/mL, T0) was 21.6 ng/mL, the “DART-A Concentration derived from quantitation assay” value (shortened to “DART-A Concentration derived”) [1, 4] was 313.7 ng/mL and the “DART-A Concentration derived” value [1, 5] was 235.2 ng/mL. For the same molecule, the “DART-A Concentration derived” value [1, 6] was 294.3 ng/mL, the “DART-A Concentration derived” value [1, 7] was 254.4 ng/mL and the “DART-A Concentration derived” value [1, 8] was 10.6 ng/mL. For the same molecule, the “DART-A Concentration derived” value [1, 9] was 6.7 ng/mL, the “DART-A Concentration derived” value [1, 10] was 12.9 ng/mL and the “DART-A Concentration derived” value [1, 11] was 11.0 ng/mL. For the same molecule, the “concentration as prepared, DART-A quantitation assay” value ([1]; Study 1, high concentration (target 5000 ng/mL)) was 5067.5 ng/mL, the “concentration as prepared, DART-A quantitation assay” value ([1]; Study 1, low concentration (target 100 ng/mL)) was 116.7 ng/mL and the “DART-A Concentration derived” value [1, 12] was 5398.7 ng/mL. For the same molecule, the “DART-A Concentration derived” value [1, 13] was 5241.2 ng/mL, the “DART-A Concentration derived” value [1, 14] was 4967.5 ng/mL and the “DART-A Concentration derived” value [1, 15] was 4916.7 ng/mL. For the same molecule, the “DART-A Concentration derived” value [1, 16] was 110.1 ng/mL, the “DART-A Concentration derived” value [1, 17] was 115.5 ng/mL and the “DART-A Concentration derived” value [1, 18] was 103.8 ng/mL. For the same molecule, the “DART-A Concentration derived” value [1, 19] was 106.2 ng/mL, the “DART-A Concentration derived” value [1, 20] was 111.4 ng/mL and the “DART-A Concentration derived” value [1, 21] was 99.4 ng/mL. For the same molecule, the “DART-A Concentration derived” value [1, 22] was 5682.9 ng/mL, the “DART-A Concentration derived” value [1, 23] was 4661.6 ng/mL and the “% Potency, CD3 binding” value ([2]; Post Infusion (Infusion Time = 48 Hrs)) was 92%. For the same molecule, the “% Potency, CD3 binding” value ([2]; Post Storage (T = 72 Hrs), room temperature) was 101%, the “% Potency, CD3 binding” value ([2]; T = 0) was 111% and the “DART-A Monomer Peak Area in SE-HPLC FLR” value [3, 4] was 1814623 EU * min. For the same molecule, the “DART-A Monomer Peak Area in SE-HPLC FLR” value [3, 5] was 1483536 EU * min, the “DART-A Monomer Peak Area in SE-HPLC FLR” value [3, 6] was 1792023 EU * min and the “DART-A Monomer Peak Area in SE-HPLC FLR” value [3, 7] was 1804667 EU * min. For the same molecule, the “DART-A Monomer Peak Area in SE-HPLC FLR” value [3, 8] was 46006 EU * min, the “DART-A Monomer Peak Area in SE-HPLC FLR” value [3, 9] was 37026 EU * min and the “DART-A Monomer Peak Area in SE-HPLC FLR” value [3, 10] was 44708 EU * min. The “DART-A Monomer Peak Area in SE-HPLC FLR” value [3, 11] was 49122 EU * min, the “DART-A Monomer Peak Area in SE-HPLC FLR” value [3, 12] was 41031471 EU * min and the “DART-A Monomer Peak Area in SE-HPLC FLR” value [3, 13] was 40529514 EU * min. For the same molecule, the “DART-A Monomer Peak Area in SE-HPLC FLR” value [3, 14] was 41438367 EU * min, the “DART-A Monomer Peak Area in SE-HPLC FLR” value [3, 15] was 41582544 EU * min and the “DART-A Monomer Peak Area in SE-HPLC FLR” value [3, 16] was 355660 EU * min. The “DART-A Monomer Peak Area in SE-HPLC FLR” value [3, 17] was 379757 EU * min, the “DART-A Monomer Peak Area in SE-HPLC FLR” value [3, 18] was 377121 EU * min and the “DART-A Monomer Peak Area in SE-HPLC FLR” value [3, 19] was 394028 EU * min. For the same molecule, the “DART-A Monomer Peak Area in SE-HPLC FLR” value [3, 20] was 397095 EU * min, the “DART-A Monomer Peak Area in SE-HPLC FLR” value [3, 21] was 368950 EU * min and the “DART-A Monomer Peak Area in SE-HPLC FLR” value [3, 22] was 41031489 EU * min. The “DART-A Monomer Peak Area in SE-HPLC FLR” value [3, 23] was 39005201 EU * min.
